In the supplement of paper PMC9233669:
This sample holds only a part of the variants without activity.

What was measured:
biotinyl-Ile-oxazolone = experiment: self-aminoacylation, catalytic enhancement (BIO) (fold over background); higher = more active; k-Seq, kA / k0A0; sequences stand for … in GGGAAUGGAUCCACAUCUACGAAUUC…UUCACUGCAGACUUGACGAAGCUG
Procedure, shortened: (§1)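 Working in 50 μL HEPES/NaCl/KCl/MgCl2/CaCl2 buffer with 5% acetonitrile at pH 6.9–7.0, mutagenized RNA pools (0.43 μM; 21-nt variable region) were reacted with 2–1250 μM of each biotinyl-aminoacyl-oxazolone for 90 minutes at room temperature. Streptavidin capture followed, with quantification by triplicate qPCR and Illumina sequencing. Catalytic enhancement is reported as median kA over the uncatalyzed rate, the low-activity peak of a bimodal Gaussian fit to the data.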

biotinyl-Leu-oxazolone = experiment: self-aminoacylation, catalytic enhancement (BLO) (fold over background); higher = more active; k-Seq, kA / k0A0; sequences stand for … in GGGAAUGGAUCCACAUCUACGAAUUC…UUCACUGCAGACUUGACGAAGCUG
Procedure, shortened: as §1

biotinyl-Trp-oxazolone = experiment: self-aminoacylation, catalytic enhancement (BWO) (fold over background); higher = more active; k-Seq, kA / k0A0; sequences stand for … in GGGAAUGGAUCCACAUCUACGAAUUC…UUCACUGCAGACUUGACGAAGCUG
Procedure, shortened: as §1

biotinyl-Val-oxazolone = experiment: self-aminoacylation, catalytic enhancement (BVO) (fold over background); higher = more active; k-Seq, kA / k0A0; sequences stand for … in GGGAAUGGAUCCACAUCUACGAAUUC…UUCACUGCAGACUUGACGAAGCUG
Procedure, shortened: as §1

biotinyl-Phe-oxazolone = experiment: self-aminoacylation, catalytic enhancement (BFO) (fold over background); higher = more active; k-Seq, kA / k0A0; sequences stand for … in GGGAAUGGAUCCACAUCUACGAAUUC…UUCACUGCAGACUUGACGAAGCUG
Procedure, shortened: as §1

biotinyl-Met-oxazolone = experiment: self-aminoacylation, catalytic enhancement (BMO) (fold over background); higher = more active; k-Seq, kA / k0A0; sequences stand for … in GGGAAUGGAUCCACAUCUACGAAUUC…UUCACUGCAGACUUGACGAAGCUG
Procedure, shortened: as §1

Sequence	self-aminoacylation (biotinyl-Ile-oxazolone)	self-aminoacylation (biotinyl-Leu-oxazolone)	self-aminoacylation (biotinyl-Trp-oxazolone)	self-aminoacylation (biotinyl-Val-oxazolone)	self-aminoacylation (biotinyl-Phe-oxazolone)	self-aminoacylation (biotinyl-Met-oxazolone)
AUUCACCUAAGUCUUCGGGUG [Fam2.2 aminoacylation ribozyme variant]	3.49	6.66	5.42	3.85	33.4	4.98
CUACUUCAAACCAUCGUUCUG [Fam1A.1 aminoacylation ribozyme variant]	0.689	0.553	0.478	0.59	0.66	0.525
AUUCUCCUAGGUCAUCGGGUG [Fam2.2 aminoacylation ribozyme variant]	8.11	17.7	12.3	8.06	82.4	13
AUUACCCUAGUCAUCCAGUGA [Fam2.1 aminoacylation ribozyme variant]	1.91	2.86	3.28	1.94	3.4	2.29
AUUACCCUGAUCGUCGAGUGA [Fam2.1 aminoacylation ribozyme variant]	0.89	0.865	0.86	0.862	0.434	0.75
AUUCGCCUGGUCAUCGAGUGA [Fam2.1 aminoacylation ribozyme variant]	3.01	4.99	6.48	3.17	16.6	4.4
CCACACUCCAAGCAAUCGGUG [Fam1B.1 aminoacylation ribozyme variant]	4.43	9.97	6.72	4.45	59.9	7.47
AUUACCCUGGACAUGGAGUGA [Fam2.1 aminoacylation ribozyme variant]	3.74	9.2	10.6	3.69	57.2	8.57
CCACACUUGAAGCUAUCGGUC [Fam1B.1 aminoacylation ribozyme variant]	1.07	0.775	0.759	1.02	0.482	0.885
AAGUUGGCAAAUAGUCGCAAG [Fam3.1 aminoacylation ribozyme variant]	1.57	1.32	2.03	1.41	2.07	1.04
AUUCCCCUAGGCCAUCGGGUG [Fam2.2 aminoacylation ribozyme variant]	8.31	19.3	12.5	9.59	119	13.6
CCACACGUCAAGCAAUCUGUC [Fam1B.1 aminoacylation ribozyme variant]	0.54	0.422	0.24	0.543	0.326	0.472
AUUACCAUGGUCACCGAGUGA [Fam2.1 aminoacylation ribozyme variant]	3.34	9.1	8.6	3.41	49.9	8.17
CCACACUUCAAGCAAUGGGUU [Fam1B.1 aminoacylation ribozyme variant]	1.22	1.39	1.46	1.71	0.91	1.14
AUUCACCAAGCUCAUCGGGUG [Fam2.2 aminoacylation ribozyme variant]	2.4	2.92	1.79	2.92	9.43	2.13
AUUCACUUAGGUCCUCGGGUG [Fam2.2 aminoacylation ribozyme variant]	3.12	6.52	4.66	2.96	35.8	4.58
AUUCACCAAGGUCAUGGGGUG [Fam2.2 aminoacylation ribozyme variant]	6.16	12.7	8.64	5.88	77.3	9.1
AUUCACUUAGGGCAUCGGGUG [Fam2.2 aminoacylation ribozyme variant]	2.91	3.98	3.48	2.72	24.5	3.03
AUUAUCCUGGUCAUCAAGUGA [Fam2.1 aminoacylation ribozyme variant]	2.3	3.5	4.39	2.2	10.1	3.84
AAUCACCUAGGUCAUCGGGUU [Fam2.2 aminoacylation ribozyme variant]	4.1	6.71	5.39	3.65	11.5	5.39
AUGAUUGCUAAUAGUCGCAAG [Fam3.1 aminoacylation ribozyme variant]	1.34	1.53	1.61	1.24	2.06	1.67
